Results reported in patent publication US20220010006A1 (BEIJING HANMI PHARMACEUTICAL, published 2022).
Values belong to the molecule of their own block, whether it stands above or below them.

Assays:
[1] = target: transmembrane TNFα on Jurkat/tmTNFα cells; assay: cell-based or functional assay
rat IL-17A = target: T1, rat IL-17A (rat, UniProt Q61453 18-150, limits assumed); assay: ELISA, plate-coated antigen 1 µg/mL, anti-human IgG-HRP
T1 construct: also called recombinant rat IL-17A
T1 sequence (looked up): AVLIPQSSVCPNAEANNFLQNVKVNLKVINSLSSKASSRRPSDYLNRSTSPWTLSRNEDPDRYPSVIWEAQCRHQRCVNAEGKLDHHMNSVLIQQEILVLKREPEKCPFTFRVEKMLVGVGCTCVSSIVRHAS
Description: (§1) Detailed procedures are as follows: the recombinant mouse TNFα, rat TNFα, mouse IL-17A and rat IL-17A (all purchased from Sino Biological, P. R. China) were coated on wells of a 96-well high-adsorption ELISA plate using a carbonate buffer solution of pH 9.6 at a coating concentration of 1 μg/mL and in a coating amount of 100 μL per well. The coating was performed at 4° C. overnight. The wells were washed with PBST 5 times. The wells were blocked with 300 μL per well of PBST containing 1% BSA, and incubated for 1 hour at 25° C., and washed with PBST 5 times. […] The wells were washed with PBST 5 times. Then, horseradish peroxidase-labeled anti-human IgG antibody (Chemicon, cat #AP 309P) 1:10000 diluted in PBST containing 1% BSA was added in an amount of 100 μL per well, and incubated at 25° C. for 1 hour. The wells were washed with PBST 5 times. The chromogenic substrate TMB was added in an amount of 100 μL per well, and color developed at room temperature for 10 minutes. Color development was terminated by adding 1M H₂SO₄ in an amount of 100 μL per well. The absorbance at 450 nm was read on a microplate reader.

mouse IL-17A = target: T2, mouse IL-17A (mouse, UniProt Q62386 26-158); assay: as above
T2 construct: also called recombinant mouse IL-17A
T2 sequence (looked up): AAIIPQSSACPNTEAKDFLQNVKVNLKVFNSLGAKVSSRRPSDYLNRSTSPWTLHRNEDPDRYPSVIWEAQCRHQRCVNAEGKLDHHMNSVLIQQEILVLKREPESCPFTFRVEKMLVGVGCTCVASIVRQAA
Description: as §1

Apoptosis ratio (%) of Jurkat/tmTNFα cells, Enbrel 1 µg/mL [1]: 19%
Apoptosis ratio (%) of Jurkat/tmTNFα cells, Enbrel 10 µg/mL [1]: 21%
Molecule: Enbrel® (Fc fusion)

Apoptosis ratio (%) of Jurkat/tmTNFα cells, Humira 1 µg/mL [1]: 29.9%
Apoptosis ratio (%) of Jurkat/tmTNFα cells, Humira 10 µg/mL [1]: 28.2%
Molecule: Humira® (antibody)

EC50 (rat IL-17A): 32 pM
EC50 (mouse IL-17A): 27 pM
B1: anti-mouse IL-17A monoclonal antibody (1D10 variable regions) (antibody, V domains shown)
VH: QVQLKESGPGLVQPSQTLSLTCTVSGFSLTNYYVHWVRQPPGKGLEWMGGVWNDGDTSYNSVLRSRLSITRDTSKSQVLLKMSSLQTEDTATYYCAREGREGFVGYYVMDAWGPGASVTVSS
VL: DIQMTQSPSFLSASVGERVTLSCKASQNINKYLDWFQQKLGEAPKLLIYNADNLHTGIPSRFSGSGSFSDFILTISSLQPEDDATYFCLQRESWPYTFGAGTKLELK
notes: Parental control of BH1654; variable regions from U.S. Pat. No. 7,846,443, 1D10; also called The anti-mouse IL-17A monoclonal antibody; anti-mouse IL-17A mAb
